Legend:
[1] = target: T1, human complement component C3 (human, UniProt P01024 23-1663); experiment: cell-based or functional assay
[2] = target: T1, human complement component C3; experiment: cell-based or functional assay; remark: listed apart in the source

| % Parent, Q1 (Type III cells with C3d deposition), modified Ham's assay, CA28-2GS-BF 50 ug/ml [1] [%] | % Parent, Q2 (Type I and II cells with C3d deposition), modified Ham's assay, CA28-2GS-BF 50 ug/ml [1] [%] | % Parent, Q3 (Type III cells without significant C3d deposition), modified Ham's assay, CA28-2GS-BF 50 ug/ml [1] [%] | % Parent, Q4 (Type I and II cells without significant C3d deposition), modified Ham's assay, CA28-2GS-BF 50 ug/ml [1] [%] | IC50 as a function of CA28 concentration, classical complement inhibition assay (C3b deposition ELISA, human plasma) [2] [nM] | Binder |
| --- | --- | --- | --- | --- | --- |
| 0.01 | 0.01 | 61.5 | 38.5 |  | ICVWQDWGAHRCTK (N-terminal acetyl; 1-methyl-tryptophan at position 4; disulfide Cys2-Cys12; AEEAc spacer between Thr13 and Lys; Lys side chain coupled to one end of a bifunctional linear 40 kD PEG of the GS type (glutaryl; amide and ester linkage); C-terminal amide) [CA28-2GS-BF] |
|  |  |  |  | 1930 | ICVWQDWGAHRCTK (N-terminal acetyl; 1-methyl-tryptophan at position 4; disulfide Cys2-Cys12; AEEAc spacer between Thr13 and Lys; Lys side chain coupled to one arm of an eight-arm 40 kD PEG (SUNBRIGHT HGEO-400GS); C-terminal amide) [(CA28-AEEAc)8-PEG40k] |

Source: patent US20200282012A1 (published 2020)
